Our source for the protein stability index values is the supplement of paper PMC10724198.

± gives the standard deviation of the averaged measurements.
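Further: PSI is a weighted mean of sequencing reads over stability bins, variants kept only with over 10 reads, mCherry proximal and sfGFP distal, peptide attached via GGGS linker.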

The subject of this data set is Saccharomyces cerevisiae. In words: protein stability index of tFT-peptide fusion (C-terminal peptide) (PSI (0-1 scale)); higher = more stable (slower turnover). The settings on record: genetic background: wild type; temperature: 30 C.
As to PTQFSSAADLSA, the protein stability index stood at 0.637 ± 0.062.
For the sequence PTRERPSDQPYP, the protein stability index was determined as 0.701 ± 0.04.
Sequence PTRGLTARPFLW yielded a protein stability index of 0.62 ± 0.042.
Next, PTRQKRPPYRIK: 0.711 ± 0.031; PTRRPDLFYYSS: 0.74 ± 0.017.
To PTRSPPPAAIAS belongs 0.697 ± 0.14.
Turning to PTSLLPLRLLNS, the protein stability index was 0.61185 ± 0.00055.
To PTSLPPLSRPPP belongs 0.723 ± 0.029.
In turn, PTSPLVFFFVPL showed a protein stability index of 0.624 ± 0.037.
To PTSQRPFFLISP belongs 0.704 ± 0.015; to PTTTPHPHIATP, 0.711 ± 0.14.
With PTVFMNIQKQNI, the protein stability index came to 0.678 ± 0.042.
As to PTVNIDSQSRSP, the protein stability index amounted to 0.692 ± 0.079.
Consider PVASFLACSIAG, for which the protein stability index was found to be 0.602 ± 0.032.
PVCELCLITLRG: the protein stability index worked out at 0.59 ± 0.053.
In the case of PVDDFVCLEVDS, the protein stability index turned out to be 0.688 ± 0.061.
PVFPSFGVSEFV displayed a protein stability index of 0.753 ± 0.059.
The sequence PVFTLLPTCYCA came in with a protein stability index of 0.6073 ± 0.0025.
To PVGDDDRTIPRL belongs 0.661 ± 0.043.
Turning to PVGEEPRPRNVR, the protein stability index stood at 0.674 ± 0.063.
Next, PVGWVEASLSPG: 0.721 ± 0.027; PVLFSPPSPFFP: 0.708 ± 0.083; PVLGRTLAFRSL: 0.659 ± 0.057.
Next, PVLHSPHSLPPR: 0.734 ± 0.11; PVLLPPCCLAIV: 0.548 ± 0.026.
As to PVLRPPTPPRFR, the protein stability index worked out at 0.661 ± 0.028.
Sequence PVPKAPPCNRRR had a protein stability index of 0.663 ± 0.0099.
For the sequence PVPLRPLSPPPP, the protein stability index came out at 0.68 ± 0.0099.
PVPPPLSPLPTP came in with a protein stability index of 0.703 ± 0.11.
As to PVPPRLPLPAPL, the protein stability index is 0.757 ± 0.051.
Next, PVSPPLPTPPPP: 0.616 ± 0.056.
As to PVSVCADRPPAP, the protein stability index came out at 0.715 ± 0.063.
To PVVFAGLLLHGH belongs 0.694 ± 0.042; to PWGGLGTGWGRR, 0.75 ± 0.035; to PWGSGSDRAGRG, 0.746 ± 0.062.
For PWVLSLASGSPS, the protein stability index is 0.687 ± 0.026.
As for PYAPYRPQVDSS, the protein stability index was determined as 0.708 ± 0.018.
Next, PYFQASLSCLPS: 0.744 ± 0.036.
Next, PYKASGLAGCAV: 0.697 ± 0.008; PYLLDTPPPSTP: 0.769 ± 0.043; PYLLSLLSPLPL: 0.7005 ± 0.007.
Sequence PYPPRPATPRPP had a protein stability index of 0.682 ± 0.018.
In turn, QADHGSSPHSIG showed a protein stability index of 0.717 ± 0.051.
Regarding QCLSIDARNGVT, the protein stability index came out at 0.668 ± 0.095.
To QEDNAIAVGWSA belongs 0.673 ± 0.008; to QEEKLSKNSKKK, 0.691 ± 0.036.
For QEHLSFVATARY, the protein stability index amounted to 0.73 ± 0.1.
In the case of QEKWSKVSKKKE, the protein stability index came to 0.749 ± 0.19.
Regarding QERKKKRENKKE, the protein stability index is 0.63688 ± 5.9e-05.
For QFTSPHLNPFRT, the protein stability index is 0.6783 ± 0.0058.
With QFWRSSSSRLAS, the protein stability index amounted to 0.687 ± 0.045.
Regarding QGAINSKRRPDQ, the protein stability index came out at 0.603 ± 0.045.
QGLPLCVVQALQ registered a protein stability index of 0.605 ± 0.042.
QGSSLLPLYFPD yielded a protein stability index of 0.622 ± 0.013.
Consider QGVGSHIPCGTP, for which the protein stability index amounted to 0.64 ± 0.023.
Next, QGVLKYPRPSPP: 0.7071 ± 0.0016; QHHDPYPHQRSP: 0.686 ± 0.023; QIEEDINLVTCN: 0.739 ± 0.049.
Next, QKCNPGKRVDRT: 0.692 ± 0.0091; QKENTKEKKKRE: 0.686 ± 0.015.
To QKFKHQNKLQSE belongs 0.6803 ± 0.0061; to QKGSGITPSPAR, 0.757 ± 0.12.
Sequence QKHTTKKTKTRY displayed a protein stability index of 0.728 ± 0.037.
QKKKKEKQKKKG gave a protein stability index of 0.692 ± 0.023.
To QKKNKNKIRTPN belongs 0.688 ± 0.012.
For QKKNNKTTKKTK, the protein stability index was 0.686 ± 0.012.
QKQKKKINIEKR returned a protein stability index of 0.731 ± 0.017.
QKTKEKKKKKRE displayed a protein stability index of 0.708 ± 0.064.
To QLFTAKHSDPLD belongs 0.7444 ± 0.0023; to QLGALIAHSTTF, 0.665 ± 0.13; to QLGVVDVIIGAS, 0.679 ± 0.052.
The sequence QLMAYFDITYSS registered a protein stability index of 0.723 ± 0.045.
Turning to QLPSDENSPANR, the protein stability index came out at 0.615 ± 0.019.
The sequence QLRYVGRSISRM gave a protein stability index of 0.659 ± 0.037.
On to QMRRRGARRAKP, for which the protein stability index was found to be 0.743 ± 0.027.
The sequence QNLRLRKNIDIK showed a protein stability index of 0.76 ± 0.014.
To QNQTYQKQKSKE belongs 0.71 ± 0.068; to QNWREDNKGKDI, 0.697 ± 0.032; to QPDQSKPSTPEP, 0.674 ± 0.051.
For QPLDCPPYHPHH, the protein stability index was 0.687 ± 0.016.
As for QPPSPHTLRADI, the protein stability index stood at 0.787 ± 0.0037.
To QQATLYCTTVRK belongs 0.682 ± 0.014; to QRCAVRSSFYVL, 0.641 ± 0.059; to QRCWSRKGVNSL, 0.67 ± 0.025.
In the case of QRGLERVVVGGI, the protein stability index was found to be 0.667 ± 0.016.
The sequence QRKKKDRTMKKR had a protein stability index of 0.631 ± 0.026.
Take QRKNQKKKHNRR: the protein stability index is 0.7159 ± 0.0027.
Next, QRQPPEACPKNS: 0.747 ± 0.01; QRRRQEKRKKQD: 0.654 ± 0.077.
In the case of QRSGNEDWKDLL, the protein stability index was 0.888 ± 0.024.
Regarding QSAAPISTPSLC, the protein stability index is 0.694 ± 0.012.
As for QSCQSKGSEVGE, the protein stability index is 0.696 ± 0.054.
Next, QSGTRRRKRCSD: 0.693 ± 0.042; QSILGLVERVIK: 0.643 ± 0.032.
QSPSHSYLCHLF gave a protein stability index of 0.583 ± 0.097.
Consider QSRSEVFPCHAS, for which the protein stability index is 0.848 ± 0.15.
Sequence QSSWGGRWVRGG gave a protein stability index of 0.669 ± 0.011.
With QTAAGLKPMSNR, the protein stability index was found to be 0.777 ± 0.17.
For QTIRNLEVPLTG, the protein stability index came out at 0.751 ± 0.017.
To QTKEGSDRHRSS belongs 0.748 ± 0.015; to QTPLPPSAISPP, 0.7124 ± 0.005; to QTPPPLPSPHPH, 0.635 ± 0.09.
QTPPPRLPPRPP yielded a protein stability index of 0.669 ± 0.062.
QTQSNTRIERKK showed a protein stability index of 0.668 ± 0.057.
Sequence QTTKPRDPPLHP gave a protein stability index of 0.787 ± 0.13.
QVDLVCKKVVGV came in with a protein stability index of 0.655 ± 0.029.
As for QVFFDTSDHRMG, the protein stability index worked out at 0.72 ± 0.029.
Consider QVHNTEICVPLV, for which the protein stability index came out at 0.679 ± 0.013.
For QVISDEHLCRFV, the protein stability index amounted to 0.651 ± 0.083.
The sequence QVKKKKQNDAKN gave a protein stability index of 0.646 ± 0.074.
In the case of QVRCCQEYSSEE, the protein stability index was found to be 0.69 ± 0.026.
Regarding QVWMRDCARKFQ, the protein stability index is 0.731 ± 0.012.
The sequence QYVYIPGLSNLC came in with a protein stability index of 0.632 ± 0.019.
QYWIYTGLKSLS had a protein stability index of 0.598 ± 0.039.
RAAQVFPHVLPR showed a protein stability index of 0.6726 ± 0.0022.
RACLVWKSLGWV registered a protein stability index of 0.605 ± 0.084.
